This note sets out measurements from publication PMC10761944, “Modular assembly of an artificially concise biocatalytic cascade for the manufacture of phenethylisoquinoline alkaloids” (Nature Communications, 2024).

The target of one data set is T1, CNMT (Coptis japonica, UniProt Q948P7).
T1 construct: codon-optimised synthetic gene, E. coli BL21(DE3), Ni-NTA purified
Nature of the data set: product titer by HPLC, coupled to RnCOMT. The data set is classed as biochemical. Conditions: SAM; (S)-1c formed in situ from 2 mM (S)-1b; HEPES pH 7.5, 30 °C, 4 h.

In data set [1] the test system is COc1cc(CC[C@@H]2NCCc3cc(O)c(O)cc32)cc(O)c1OC. Nature of the data set: initial rates by HPLC, Michaelis-Menten fit. Format: biochemical, Gloriosa superba. The following applies: SAM as methyl donor, 200 mM potassium phosphate pH 7.5, 30 °C.
A further data set deals with T2, RnCOMT (Rattus norvegicus, UniProt P22734).
T2 construct: gene Comt; codon-optimised synthetic gene, E. coli BL21(DE3), Ni-NTA purified
T2 sequence (P22734 1-264): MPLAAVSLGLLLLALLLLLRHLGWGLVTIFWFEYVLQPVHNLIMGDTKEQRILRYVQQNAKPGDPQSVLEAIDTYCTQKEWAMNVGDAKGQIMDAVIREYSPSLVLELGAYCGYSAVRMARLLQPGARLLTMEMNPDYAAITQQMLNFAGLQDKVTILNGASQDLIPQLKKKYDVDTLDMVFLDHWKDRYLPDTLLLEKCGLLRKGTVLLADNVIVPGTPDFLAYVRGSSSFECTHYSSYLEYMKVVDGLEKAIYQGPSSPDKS
Briefly: conversion by HPLC. The data set is classed as biochemical. The following applies: 4 mM SAM, 10 mM MgCl2, HEPES pH 7.5, 30 °C, 2 h.

A further data set deals with T3, TfNCS (Thalictrum flavum, UniProt C3SBV6).
T3 construct: codon-optimised synthetic gene, E. coli BL21(DE3), Ni-NTA purified
Briefly: product by HPLC, coupled to TpCAR. Format: biochemical. Conditions: 1a formed in situ from 1 by TpCAR; co-substrate dopamine; HEPES pH 7.5, 30 °C.

For the molecule `COc1cc2c(cc1O)[C@H](CCc1cc(OC)c(OC)c(OC)c1)NCC2` [(S)-1c], the “product titer by HPLC, coupled to RnCOMT” value at CNMT is reported as “CNMT showed a very weak catalytic activity towards (S)−1c”.

On to GsOMT1 (Gloriosa superba), for which, in data set [1], the Km was 630 ± 50 µM and the kcat was found to be 4.56 ± 0.24 s⁻¹.

As to GsOMT1 (Gloriosa superba; V125Q), in data set [1], the Km amounted to 330 ± 20 µM and the kcat was determined as 8.65 ± 0.26 s⁻¹.

Take `COc1cc(CC[C@@H]2NCCc3cc(O)c(O)cc32)cc(OC)c1OC` [(S)-1b]: the “conversion by HPLC” value at RnCOMT was “the enzymatic activity of RnCOMT towards (S)−1b was much better than that of GsOMT1”.

Take `COc1cc(CCC=O)cc(OC)c1OC` [1a]: the “product by HPLC, coupled to TpCAR” value on TfNCS is listed as “(S)−1b was efficiently synthesized without the accumulation of intermediate 1a”.

For orientation: Km means the substrate concentration at which the rate is half of its maximum. What is called kcat is the number of substrate molecules converted per active site and unit of time at saturation.
